Assay [1] concerns the target SNAP-tagged murine µOR on HEK293 cells (murine, UniProt P42866, SNAP-Lumi4-Tb (terbium cryptate) on the SNAP tag). Put plainly: AlphaScreen or HTRF. (In general: In Alpha technology, singlet oxygen from a donor bead excites a nearby acceptor bead.)
Assay [2] has as its target human μ-opioid receptor, ssf-tagged, on HEK293 cells (Homo sapiens (Human)., UniProt P35372). Put plainly: immunostaining of cells or tissue.
The target in assay [3] is murine κ-opioid receptor, ssf-tagged, on HEK293 cells (Mus musculus (Mouse)., UniProt P33534). In words: flow cytometry on cells. For orientation: A flow cytometer gives signals particle by particle.
murine κ-opioid receptor, ssf-tagged, on HEK293 cells, sequence (P33534 whole entry): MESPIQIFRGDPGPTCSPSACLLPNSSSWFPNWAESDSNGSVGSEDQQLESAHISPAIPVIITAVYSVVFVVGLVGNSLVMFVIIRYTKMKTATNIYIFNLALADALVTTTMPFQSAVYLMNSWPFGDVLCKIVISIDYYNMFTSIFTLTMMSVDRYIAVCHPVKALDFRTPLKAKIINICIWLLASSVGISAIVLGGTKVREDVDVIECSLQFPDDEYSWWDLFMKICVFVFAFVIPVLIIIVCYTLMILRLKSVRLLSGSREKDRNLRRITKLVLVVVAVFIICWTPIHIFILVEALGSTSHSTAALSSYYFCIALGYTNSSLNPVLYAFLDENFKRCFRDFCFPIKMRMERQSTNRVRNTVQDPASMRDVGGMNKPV
Assay [4] deals with murine nociceptin opioid receptor, ssf-tagged, on HEK293 cells (Mus musculus (Mouse)., UniProt P35377). Put plainly: flow cytometry on cells.
murine nociceptin opioid receptor, ssf-tagged, on HEK293 cells, sequence (P35377 whole entry): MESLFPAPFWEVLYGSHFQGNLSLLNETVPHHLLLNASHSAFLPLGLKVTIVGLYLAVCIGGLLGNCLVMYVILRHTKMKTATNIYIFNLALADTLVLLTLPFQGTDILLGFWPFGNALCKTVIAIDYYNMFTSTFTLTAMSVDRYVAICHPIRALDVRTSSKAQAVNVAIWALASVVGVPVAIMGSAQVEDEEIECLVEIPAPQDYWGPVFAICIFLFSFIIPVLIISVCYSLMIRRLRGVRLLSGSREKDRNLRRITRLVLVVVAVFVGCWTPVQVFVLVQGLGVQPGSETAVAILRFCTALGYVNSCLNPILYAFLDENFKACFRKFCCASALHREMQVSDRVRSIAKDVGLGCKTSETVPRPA
Assay [5] concerns the target SNAP-tagged murine µOR on HEK293 cells (murine, UniProt P42866 1-398). In words: AlphaScreen or HTRF.

SNAP-tagged murine µOR on HEK293 cells (murine, UniProt P42866 1-398), sequence (P42866 whole entry): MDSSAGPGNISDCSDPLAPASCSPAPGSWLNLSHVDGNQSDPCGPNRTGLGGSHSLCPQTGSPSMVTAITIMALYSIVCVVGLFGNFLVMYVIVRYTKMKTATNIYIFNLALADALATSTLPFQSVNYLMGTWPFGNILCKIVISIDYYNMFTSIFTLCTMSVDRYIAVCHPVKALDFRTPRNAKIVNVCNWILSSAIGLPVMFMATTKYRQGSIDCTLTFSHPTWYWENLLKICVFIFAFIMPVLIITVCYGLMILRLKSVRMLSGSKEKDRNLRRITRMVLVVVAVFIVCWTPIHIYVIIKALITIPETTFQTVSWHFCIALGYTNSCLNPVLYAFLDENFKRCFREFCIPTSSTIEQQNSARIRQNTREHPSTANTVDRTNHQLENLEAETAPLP
human μ-opioid receptor, ssf-tagged, on HEK293 cells, sequence (P35372 whole entry): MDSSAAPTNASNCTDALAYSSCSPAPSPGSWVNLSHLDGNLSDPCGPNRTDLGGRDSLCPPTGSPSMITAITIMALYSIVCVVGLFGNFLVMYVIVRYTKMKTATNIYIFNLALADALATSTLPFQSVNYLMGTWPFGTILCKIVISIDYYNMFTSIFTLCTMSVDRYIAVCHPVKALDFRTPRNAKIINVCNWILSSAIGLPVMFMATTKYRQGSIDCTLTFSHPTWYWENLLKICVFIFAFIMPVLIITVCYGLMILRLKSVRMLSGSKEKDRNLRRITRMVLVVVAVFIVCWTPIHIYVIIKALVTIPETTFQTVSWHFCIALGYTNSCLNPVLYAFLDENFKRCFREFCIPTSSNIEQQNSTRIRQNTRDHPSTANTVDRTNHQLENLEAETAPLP
SNAP-tagged murine µOR on HEK293 cells (murine, UniProt P42866, SNAP-Lumi4-Tb (terbium cryptate) on the SNAP tag), sequence (P42866 whole entry): as the sequence (P42866 whole entry) above

B1: NbE (NbE-6xHis, unlabeled) (VHH)
VHH: QVQLVESGGGLVQAGGSLRLSCAASGSISSISTMGWYRQAPGNERELVAAITSGGSTNYADSVKGRFTISRDNAKNTVYLQMNSLKPEDTAVYYCNFKYYSGSYFYKSEYDYWGQGTQVTVSS
A word on the Ki: it is a measure of affinity in units of concentration, obtained from inhibition or displacement. Lower therefore signals tighter binding. In turn, B1 yielded a Ki in assay [1] of 18 nM.

B2: HA-tagged NbE (VHH)
VHH: QVQLVESGGGLVQAGGSLRLSCAASGSISSISTMGWYRQAPGNERELVAAITSGGSTNYADSVKGRFTISRDNAKNTVYLQMNSLKPEDTAVYYCNFKYYSGSYFYKSEYDYWGQGTQVTVSS
On to B2, for which the binding result in assay [2] is recorded as “binds”.

B3: NbE conjugated with Alexa Fluor 488 (VHH)
VHH: QVQLVESGGGLVQAGGSLRLSCAASGSISSISTMGWYRQAPGNERELVAAITSGGSTNYADSVKGRFTISRDNAKNTVYLQMNSLKPEDTAVYYCNFKYYSGSYFYKSEYDYWGQGTQVTVSS
For B3, the binding result in assay [3] and in assay [4] was “no binding (tested: 10 μM)” each time.

The molecule Ac-YYSGSYFYKSEY-NH2 [linear peptide 5 (NbE CDR3, 12 residues)] returned an inhibitory constant (Ki) in assay [5] of 1300 nM.

In turn, KYYSGSYFYKSEYD [linear peptide 6 (NbE CDR3 residues 100-113, 14 residues)] gave an inhibition constant Ki in assay [5] of 3100 nM.

The record behind these values is article PMC11464722 (Nature Communications, 2024).
